The target in one series is LGF2‐pBT. In words: two-hybrid; bacterial two-hybrid (BacterioMatch II) in E. coli XL1‐Blue MRF′; NF‐YB1‐pTRG and NF‐YCs‐pBT; growth on M9/+Cm/+Ter/+3‐AT/+Strep/‐HIS against M9/+Cm/+Ter; intensity = ratio (%) of colony numbers.
Series [1] deals with HIS‐NF‐YB1 (rice (Oryza sativa L.)) (UniProt Q6Z348).
The next series has as its target T1, HIS-NF-YB1 (Oryza sativa L. (rice; cultivar not …, UniProt Q6Z348 1-186).
T1 sequence: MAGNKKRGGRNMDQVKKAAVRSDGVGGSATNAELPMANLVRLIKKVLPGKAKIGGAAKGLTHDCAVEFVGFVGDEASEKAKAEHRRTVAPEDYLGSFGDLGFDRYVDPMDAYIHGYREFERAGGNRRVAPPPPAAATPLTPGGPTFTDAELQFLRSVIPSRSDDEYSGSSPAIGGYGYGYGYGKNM
As to the kind of experiment: EMSA; EMSA: Beyotime EMSA/Gel-shift binding buffer (composition and pH not given), 10 uL, 2 nmol biotin probe, 5 nmol protein, 20 min preincubation + 20 min at 25 C. The following applies: protein: recombinant; tags: N-terminal His (pET28a); label: biotin; blunt. On the technique in general: Mobility shift assays separate free from complexed probe on a gel.

Series [2] addresses GST‐NF‐YC12 (rice (Oryza sativa L.)).
Series [3] deals with NF‐YC12‐pBT (rice (Oryza sativa L.)). As to the kind of experiment: two-hybrid; bacterial two-hybrid (BacterioMatch II) in E. coli XL1‐Blue MRF′; NF‐YB1‐pTRG and NF‐YCs‐pBT; growth on M9/+Cm/+Ter/+3‐AT/+Strep/‐HIS against M9/+Cm/+Ter; intensity = ratio (%) of colony numbers.

Experimental findings from paper PMC6576074, “NF‐YB1‐YC12‐bHLH144 complex directly activates Wx to regulate grain quality in rice (Oryza sativa L.)” are described below.

Gal11‐pTRG: in the series with LGF2‐pBT, the interaction intensity (ratio of colony numbers on selective and non-selective medium) came to 33.8%.

With HIS‐bHLH144‐FLAG (natural protein), the half-life of HIS‐NF‐YB1 in a cell-free degradation assay with GST‐NF‐YC12 and HIS‐bHLH144‐FLAG added (heterotrimer); around 15 min for HIS‐NF‐YB1 alone in series [1] amounted to 40 min.

B1: Wx promoter probe 3 (dsDNA)
DNA 1: CGTAATTCCAAGTTCTTTTTTTTTTGTCAGCACGTACAAGCAGCCGCTAGCCTCGCCCTG
DNA 2: CAGGGCGAGGCTAGCGGCTGCTTGTACGTGCTGACAAAAAAAAAAGAACTTGGAATTACG
Regarding B1, the binding result with HIS-NF-YB1 was “no binding”.

B2: Wx promoter probe 2 (dsDNA)
DNA 1: CAGGCACTCAGCTCGCTGCTGGTCCCGCACGTCGCCACACGATCGACGTACGCACGCGAG
DNA 2: CTCGCGTGCGTACGTCGATCGTGTGGCGACGTGCGGGACCAGCAGCGAGCTGAGTGCCTG
For the molecule B2, the binding result in the series with HIS-NF-YB1 is listed as “no binding”.

B3: HIS‐NF‐YB1 (natural protein)
chain: T1 sequence
Turning to B3, the half-life of HIS‐NF‐YB1 in a cell-free degradation assay (total protein extract of 10 DAG rice seedlings) with GST‐NF‐YC12 added; around 15 min for HIS‐NF‐YB1 alone in series [2] stood at 30 min.

B4: NF‐YB1‐pTRG (natural protein)
chain: T1 sequence
B4: the interaction intensity (ratio of colony numbers on selective and non-selective medium) in series [3] came out at 63.7%.

B5: Wx promoter probe 5 (dsDNA)
DNA 1: AGATCATATCGTCTCCAGACTCAAGTGCACGTTGATCGTTCGCTCACTGCTTCATCGATC
DNA 2: GATCGATGAAGCAGTGAGCGAACGATCAACGTGCACTTGAGTCTGGAGACGATATGATCT
B5: in the series with HIS-NF-YB1, the binding result was “no binding”.

B6: Wx promoter probe 4 (dsDNA)
DNA 1: CAACGTGCCAACGTACGCACGCTAACGTGAGTCATGTAGCGTAATTCCAAGTTCTTTTTT
DNA 2: AAAAAAGAACTTGGAATTACGCTACATGACTCACGTTAGCGTGCGTACGTTGGCACGTTG
Turning to B6, the binding result with HIS-NF-YB1 is given as “no binding”.
